T1: Pot1pC (198-339 V199D) (Schizosaccharomyces pombe, UniProt O13988 198-339, V199D)
T1 sequence: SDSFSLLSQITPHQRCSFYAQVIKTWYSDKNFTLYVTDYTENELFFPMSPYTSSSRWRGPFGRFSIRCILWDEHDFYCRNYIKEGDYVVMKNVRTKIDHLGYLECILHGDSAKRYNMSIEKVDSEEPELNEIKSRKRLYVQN


What follows are binders tested against T1, Pot1pC (198-339 V199D) (assay: X-ray crystal structure).
GCTTACGGT (ssDNA) [G2C]: binds.

What follows are binders tested against T1, Pot1pC (198-339 V199D) (assay: ITC).
Binder GGTTACGGT (ssDNA) [9mer] has a Kd of 24 nM.
GGATACGGT (ssDNA) [T3A] gave a Kd of 37 nM.
GGTAACGGT (ssDNA) [T4A] was tested, and the Kd was 21 nM.
Binder GGTTTCGGT (ssDNA) [A5T] has a Kd of 63 nM.
Binder GGTTAGGGT (ssDNA) [C6G] has a Kd of 6 nM.
GGTTACGCT (ssDNA) [G8C] was tested, and the Kd was 22 nM.
